Residue numbers refer to the chain shown, from its start. Names and notes keep the numbering of the source.
B1: TBP1 (TBD1 Fab-hIgG4PAA Fc) (antibody, V domains shown)
VH: EVQLVESGGGLVKPGGSLRLSCVASGFTFSSYSMNWVRQAPGKGLEWVSSISRSSSYIYYADSVKGRFTISRDNAKNSLYLQMNSLRAEDTAVYYCAREHGYSNSDAFDIWGQGTLVTVSS
VL: DIQMTQSPSAMSASVGDRVTITCRASQGISNYLAWFQQKPGKVPKRLIYAASSLQSGVPSRFSGSGSGTEFTLTISSLQPEDFATYYCLQHNSYPRTFGQGTKVEIKR
B2: TBP3 (TBD3 Fab-hIgG4PAA Fc) (antibody, V domains shown)
VH: B1 VH with E99I
VL: B1 VL with N31H, A34V
notes: Fab-Fc format, one HC and one LC
B3: TBP5 (TBD5 Fab-hIgG4PAA Fc) (antibody, V domains shown)
VH: EVQLVESGGGLVQPGGSLRLSCAASGFTFRTYWMHWVRQAPGKGLLWVSRINGDGSRTNYADSVKGRFTISRDNAKKTLYLQMNSLRAEDTAVYFCARSSYAFDVWGQGTMVTVSS
VL: DVVMTQTPLSLPVTPGEPASISCRSSQSLLDSDDGSTYLDWYLQKPGQSPQLLIYLLSNRASGVPDRFSGSGSGTVFTLKISSVEAADVGVYYCMQRIEFPLTFGGGTKVEIKR
notes: as for B2
B4: TBP6 (TBD6 Fab-hIgG4PAA Fc) (antibody, V domains shown)
VH: B3 VH with L46V, G53S, K77N, F95Y, M111L
VL: B3 VL with V2I, V76D, S83R, A87E
notes: as for B2
B5: TBP14-MAPT siRNA (dsRNA No. 38 in Table 11b) (antibody)
heavy: EVQLVESGGGLVKPGGSLRLSCVASGFTFSSYSMNWVRQAPGKGLEWVSSISSSSSYIYYADSVKGRFTISRDNAKNSLYLQMNSLRAEDTAVYYCARRHGYSNSDAFDNWGQGTLVTVSSASTKGPSVFPLAPCSRSTSESTAALGCLVKDYFPEPVTVSWNSGALTSGVHTFPAVLQSSGLYSLSSVVTVPSSSLGTKTYTCNVDHKPSNTKVDKRVESKYGPPCPPCPAPEAAGGPSVFLFPPKPKDTLMISRTPEVTCVVVDVSQEDPEVQFNWYVDGVEVHNAKTKPREEQFNSTYRVVSVLTVLHQDWLNGKEYKCKVSNKGLPSSIEKTISKAKGQPREPQVSTLPPSQEEMTKNQVSLMCLVYGFYPSDICVEWESNGQPENNYKTTPPVLDSDGSFFLYSVLTVDKSRWQEGNVFSCSVMHEALHNHYTQKSLSLSLG
light: DIQMTQSPSAMSASVGDRVTITCRASQGISHYLVWFQQKPGKVPKRLIYAASSLQSGVPSRFSGSGSGTEFTLTISSLQPEDFATYYCLQHNSYPWTFGQGTKVEIKRTVAAPSVFIFPPSDEQLKSGTASVVCLLNNFYPREAKVQWKVDNALQSGNSQESVTEQDSKDSTYSLSSTLTLSKADYEKHKVYACEVTHQGLSSPVTKSFNRGEC
chain: ESKYGPPCPPCPAPEAAGGPSVFLFPPKPKDTLMISRTPEVTCVVVDVSQEDPEVQFNWYVDGVEVHNAKTKPREEQFNSTYRVVSVLTVLHQDWLNGKEYKCKVSNKGLPSSIEKTISKAKGQPREPQVYTLPPSQGDMTKNQVQLTCLVKGFYPSDICVEWESNGQPENNYKTTPPVLDSDGSFFLASRLTVDKSRWQEGNVFSCSVMHEALHNHYTQKSLSLSLG
modifications: MAPT siRNA (dsRNA No. 38) conjugated through a linker at the engineered cysteine (A378C, EU numbering, by the name in Table 6b)
notes: Protein-siRNA conjugate of TBP14; also called TBP14-MAPT siRNA conjugate
B6: TBP15-MAPT siRNA (dsRNA No. 39 in Table 11b) (antibody)
heavy: B5 heavy with S128C, C379A
light: B5 light
chain: B5 chain with C160A
modifications: MAPT siRNA (dsRNA No. 39) conjugated through a linker at the engineered cysteine (S124C, EU numbering, by the name in Table 6b)
notes: Protein-siRNA conjugate of TBP15
B7: TBP14-SNCA siRNA (dsRNA No. 10 in Table 11a) (antibody)
heavy: B5 heavy
light: B5 light
chain: B5 chain
modifications: SNCA siRNA (dsRNA No. 10) conjugated through a linker at the engineered cysteine (A378C, EU numbering, by the name in Table 6b)
notes: Protein-siRNA conjugate of TBP14; also called TBP14-SNCA siRNA conjugate
B8: TBP14 (TBD4-one arm heteromab, A378C) (antibody, human IgG4 S228P, kappa, F234A L235A)
heavy: B5 heavy
light: B5 light
chain: B5 chain
notes: One-armed antibody: two heavy chains (HC1 full, HC2 Fc only) and one light chain; no LC2

Biological target: T1, human TfR (cell-bound) (human, UniProt P02786 1-760)
T1 construct: Endogenous receptor on hCMEC-D3 cells (stated); also called hTFR; human transferrin receptor on hCMEC-D3 cells
T1 sequence (P02786 whole entry): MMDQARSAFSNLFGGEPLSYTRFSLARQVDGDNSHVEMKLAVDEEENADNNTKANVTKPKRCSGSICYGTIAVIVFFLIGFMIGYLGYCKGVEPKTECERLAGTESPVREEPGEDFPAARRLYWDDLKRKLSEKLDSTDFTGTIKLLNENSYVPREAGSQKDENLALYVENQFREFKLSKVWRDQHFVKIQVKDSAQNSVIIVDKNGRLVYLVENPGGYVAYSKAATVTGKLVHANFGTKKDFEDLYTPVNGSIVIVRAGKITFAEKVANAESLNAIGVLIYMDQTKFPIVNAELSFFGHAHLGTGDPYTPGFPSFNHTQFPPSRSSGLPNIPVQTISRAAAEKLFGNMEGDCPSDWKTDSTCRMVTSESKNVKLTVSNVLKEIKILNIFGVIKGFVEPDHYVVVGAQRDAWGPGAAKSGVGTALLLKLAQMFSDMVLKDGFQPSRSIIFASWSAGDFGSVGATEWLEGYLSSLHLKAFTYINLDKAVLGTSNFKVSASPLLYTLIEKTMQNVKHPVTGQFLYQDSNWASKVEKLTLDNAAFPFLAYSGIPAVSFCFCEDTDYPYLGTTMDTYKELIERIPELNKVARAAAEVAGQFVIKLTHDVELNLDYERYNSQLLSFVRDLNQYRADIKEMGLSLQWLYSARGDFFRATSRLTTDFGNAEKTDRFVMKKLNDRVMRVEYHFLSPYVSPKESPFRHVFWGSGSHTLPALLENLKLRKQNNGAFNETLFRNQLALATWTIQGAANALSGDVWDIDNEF
Experiment: flow cytometry on hCMEC-D3 cells (endogenous human TfR), on ice, PE-labeled secondary
Protocol: (§1) Human endothelial line hCMEC-D3 (EMD Millipore SC066), endogenously expressing human TfR and MDCK cell line (ATCC CCL-34), engineered to express cynomolgus TfR were utilized to evaluate antibody/protein binding to cell-bound TfR. Cells were grown and maintained at submaximal confluence and detached from cultureware using Accutase cell detachment solution, washed, and allocated at 50000 cells per well for assessment of binding. Cells were treated with a viability stain then subsequently incubated with titrated concentrations of TfR binding proteins on ice. Cells were washed and binding of test antibodies or proteins was detected using a PE-labeled secondary reagent. Cells were then washed and read on the same day using a BioRad ZE5 cytometer. Analysis was performed post-acquisition in FlowJo, analyzing fluorescence of single, viable, non-debris events. EC50 values were derived by plotting geometric median PE intensity values across a given sample titration and fitting a sigmoidal (4PL) response curve in GraphPad Prism 8.3.0.

**Q.** How did the EC50 turn out when B1 was run?
**A.** The EC50 was 0.47 nM.

**Q.** Which EC50 does the source give for B2 here?
**A.** The EC50 was 0.14 nM.

**Q.** How did the EC50 turn out when B3 was run?
**A.** The EC50 was 4.83 nM.

**Q.** For B4, which EC50 is on record?
**A.** Its EC50 is 1.2 nM.

**Q.** Which EC50 does the source give for B5 here?
**A.** Its EC50 is 764 nM.

**Q.** How did the EC50 turn out when B6 was run?
**A.** Its EC50 is 75.6 nM.

**Q.** How did the EC50 turn out when B7 was run?
**A.** The EC50 was 298 nM.

Biological target: T2, cynomolgus TfR (on MDCK cells) (cynomolgus, UniProt H9EXL1 1-760 (rhesus entry))
T2 construct: whole, on cells; also called Cyno MDCK
Experiment: flow cytometry on MDCK cells engineered to express cynomolgus TfR, on ice, PE-labeled secondary
Protocol: as §1

**Q.** With B1 as the binder, how does the EC50 read?
**A.** Its EC50 is 510 nM.

**Q.** For B2, which EC50 is on record?
**A.** Its EC50 is 0.15 nM.

**Q.** For B3, which EC50 is on record?
**A.** The EC50 was 1.63 nM.

**Q.** With B4 as the binder, how does the EC50 read?
**A.** Its EC50 is 0.76 nM.

**Q.** How did the EC50 turn out when B5 was run?
**A.** Its EC50 is 453 nM.

**Q.** For B6, which EC50 is on record?
**A.** Its EC50 is 57.1 nM.

**Q.** With B7 as the binder, how does the EC50 read?
**A.** Its EC50 is 225 nM.

Biological target: T3, cynomolgus TfR ECD (cynomolgus)
T3 chain: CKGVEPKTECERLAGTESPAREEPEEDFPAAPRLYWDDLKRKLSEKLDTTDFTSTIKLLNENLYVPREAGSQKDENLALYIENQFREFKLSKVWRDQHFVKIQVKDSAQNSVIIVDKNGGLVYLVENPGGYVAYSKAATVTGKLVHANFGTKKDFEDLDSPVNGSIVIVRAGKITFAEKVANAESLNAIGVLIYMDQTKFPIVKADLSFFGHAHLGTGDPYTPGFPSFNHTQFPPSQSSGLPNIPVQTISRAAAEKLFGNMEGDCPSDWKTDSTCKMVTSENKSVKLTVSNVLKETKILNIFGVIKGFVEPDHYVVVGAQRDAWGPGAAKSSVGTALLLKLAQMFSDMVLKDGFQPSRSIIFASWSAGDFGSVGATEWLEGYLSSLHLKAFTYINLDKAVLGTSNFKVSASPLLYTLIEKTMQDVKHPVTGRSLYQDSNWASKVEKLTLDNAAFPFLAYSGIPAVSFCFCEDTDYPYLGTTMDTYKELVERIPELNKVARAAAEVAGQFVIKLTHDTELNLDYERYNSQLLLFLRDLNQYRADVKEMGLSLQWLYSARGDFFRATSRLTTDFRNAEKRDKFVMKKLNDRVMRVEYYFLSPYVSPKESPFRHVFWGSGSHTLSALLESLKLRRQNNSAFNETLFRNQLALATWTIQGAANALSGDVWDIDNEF
Experiment: SPR (Biacore 8K), 37 C; TfR ECD amine-coupled to CM4 chip, TBP as analyte; multi-cycle kinetics, 2-state fit; n = 3
Protocol: (§2) Target human and cynomolgous TfR ECD's were immobilized on a CM4 chip (Cytiva P/N 29104989) using standard NHS-EDC amine coupling. The TfR binding proteins were prepared at a final concentration of 0.3, 0.1, 0.033, 0.01, 0.0033, 0.001, 0.00033, 0.0001 μM respectively by dilution of stock solution into running buffer.
(§3) Binding analysis was performed in a multi-cycle kinetics manner. Each analysis cycle consists of (1) injection of the lowest to highest concentration proteins over all Fc at 50 μL/min for 140 seconds followed by return to buffer flow for 400 seconds to monitor dissociation phase; (2) regeneration of chip surfaces with injection of 3M magnesium chloride, for 30 seconds at 100 μL/min over all cells; and (3) equilibration of chip surfaces with a 50 μL (30-sec) injection of HBS-EP+. Data were processed using standard double-referencing and fit to a 2-state binding model using Biacore 8K Evaluation software, to determine the association rate (kₒₙ, M⁻¹s⁻¹ units), dissociation rate (koff, s⁻¹ units), and Rₘₐₓ (RU units). The equilibrium dissociation constant (KD) is calculated from the relationship KD=koff/kₒₙ, and is in molar units.

**Q.** For B2, which Kd is on record?
**A.** The Kd was 0.254 nM.

**Q.** With B3 as the binder, how does the Kd read?
**A.** The Kd was 156 nM.

**Q.** With B4 as the binder, how does the Kd read?
**A.** Its Kd is 92.5 nM.

Biological target: T4, human TfR ECD (His-tagged) (human, UniProt P02786 89-760)
T4 construct: also called hTfR-ECD-6His; his-tagged hTfR-ECD
Experiment: as above
Protocol: as §2, §3

**Q.** B1 was tested. Which Kd did it give?
**A.** Its Kd is 0.966 nM.

**Q.** With B2 as the binder, how does the Kd read?
**A.** The Kd was 0.005 nM.

**Q.** B3 was tested. Which Kd did it give?
**A.** Its Kd is 4.25 nM.

**Q.** With B4 as the binder, how does the Kd read?
**A.** Its Kd is 2.25 nM.

**Q.** For B5, which Kd is on record?
**A.** Its Kd is 258 nM.

**Q.** For B7, which Kd is on record?
**A.** The Kd was 541 nM.

**Q.** For B8, which Kd is on record?
**A.** Its Kd is 154 nM.

Biological target: T5, cynomolgus TfR ECD (cynomolgus)
T5 construct: extracellular domain; amine-coupled in the 37 C assay; also called Cyno TfR; His-tagged cynomolgus TfR ECD
Experiment: as above
Protocol: as §2, §3

**Q.** For B5, which Kd is on record?
**A.** Its Kd is 448 nM.

**Q.** Which Kd does the source give for B6 here?
**A.** Its Kd is 199 nM.

**Q.** For B8, which Kd is on record?
**A.** The Kd was 300 nM.

Biological target: T3, cynomolgus TfR ECD
Experiment: SPR (Biacore 8K), 25 C; His-tagged TfR ECD captured by anti-His antibody, TBP as analyte; single-cycle kinetics, 2-state fit
Protocol: (§4) An anti-His antibody was immobilized on a CM5 chip (Cytiva P/N 29104988) using standard NHS-EDC amine coupling on all four flow cells (Fc). Target (human or cynomolgus TfR ECD) were prepared in the running buffer at final concentration of 500 μg/mL.
(§5) Binding analysis was performed in a single-cycle kinetics manner. Each analysis cycle consists of (1) capturing the target (His-tagged human or cynomolgus TfR ECD) samples on separate flow cells (Fc2, Fc3 and Fc4); (2) injection of the lowest to highest concentration of antibodies or proteins over all Fc at 30 μL/min for 900 seconds followed by return to buffer flow for 1800 seconds to monitor dissociation phase; (3) regeneration of chip surfaces with injection of 10 mM glycine, pH 1.5, for 30 seconds at […] over all cells; and (4) equilibration of chip surfaces with a 10 μL (60-sec) injection of HBS-EP+. Data were processed using standard double-referencing and fit to a 2-state binding model using Biacore 8K Evaluation software, to determine the association rate (kₒₙ, M⁻¹s⁻¹ units), dissociation rate (koff, s⁻¹ units), and Rₘₐₓ (RU units). The equilibrium dissociation constant (KD) is calculated from the relationship KD=koff/kₒₙ, and is in molar units.

**Q.** B1 was tested. Which Kd did it give?
**A.** The Kd was 145 nM.

**Q.** Which Kd does the source give for B2 here?
**A.** The Kd was 0.015 nM.

**Q.** For B3, which Kd is on record?
**A.** Its Kd is 1.47 nM.

**Q.** With B4 as the binder, how does the Kd read?
**A.** Its Kd is 7.7 nM.

Biological target: T4, human TfR ECD (His-tagged)
Experiment: as above
Protocol: as §4, §5
Target sequence in this assay (P02786 other isoform, or with tags, fused parts or gaps): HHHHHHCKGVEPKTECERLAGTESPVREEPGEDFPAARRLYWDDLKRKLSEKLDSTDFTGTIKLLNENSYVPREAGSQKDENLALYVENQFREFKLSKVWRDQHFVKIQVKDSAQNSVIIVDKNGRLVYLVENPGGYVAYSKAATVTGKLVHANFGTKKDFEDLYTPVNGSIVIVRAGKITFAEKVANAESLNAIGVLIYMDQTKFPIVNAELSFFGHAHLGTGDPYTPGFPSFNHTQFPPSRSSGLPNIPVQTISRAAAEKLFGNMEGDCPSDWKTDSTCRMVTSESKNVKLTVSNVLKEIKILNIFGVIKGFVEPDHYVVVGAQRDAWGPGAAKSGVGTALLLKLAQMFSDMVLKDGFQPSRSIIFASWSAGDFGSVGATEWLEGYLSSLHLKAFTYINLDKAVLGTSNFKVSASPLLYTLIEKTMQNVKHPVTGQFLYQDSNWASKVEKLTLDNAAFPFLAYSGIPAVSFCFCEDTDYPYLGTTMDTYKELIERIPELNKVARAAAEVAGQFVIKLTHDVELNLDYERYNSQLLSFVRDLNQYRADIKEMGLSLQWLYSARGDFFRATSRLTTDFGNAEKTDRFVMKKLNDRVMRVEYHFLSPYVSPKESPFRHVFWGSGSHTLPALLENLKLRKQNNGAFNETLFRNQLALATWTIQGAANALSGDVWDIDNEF

**Q.** With B1 as the binder, how does the Kd read?
**A.** Its Kd is 110 pM.

**Q.** B2 was tested. Which Kd did it give?
**A.** The Kd was 0.048 pM.

**Q.** How did the Kd turn out when B3 was run?
**A.** The Kd was 590 pM.

**Q.** For B4, which Kd is on record?
**A.** The Kd was 60 pM.

Biological target: T4, human TfR ECD (His-tagged)
Experiment: SPR (Biacore 8K), 37 C; TfR ECD amine-coupled to CM4 chip, TBP as analyte; multi-cycle kinetics, 2-state fit; n = 3; conjugated to MAPT siRNA (dsRNA No. 39 in Table 11b)
Protocol: as §2, §3

**Q.** How did the Kd turn out when B6 was run?
**A.** The Kd was 213 nM.

Source: patent US20240059784A1 (Eli Lilly, published 2024)
